Experimental data published in the supplement of paper PMC12042874.
± gives the uncertainty stated by the source.

Assay: amyloid nucleation score (Sup35N fusion, yeast selection) (log enrichment); library NNK3; higher = more nucleation; inactive = no reads after selection
How it was run: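 Libraries of peptides of 20 random codons fused to Sup35N were expressed in psi-negative yeast and induced 24 hours with 100 μM copper sulfate. Selection was 7 days at 30°C on medium lacking adenine and uracil, and plasmid inserts were Illumina-sequenced before and after selection. Nucleation score is the DiMSum log enrichment of output over input reads, centred on the mode score of non-aggregating sequences, and sequences with under 100 input reads were left out.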

HCNFMRFCLRAFSSGMHWLF
amyloid nucleation score: inactive

HCSCDGAIRYDILQSNHKE
amyloid nucleation score: inactive

HDDSTSNNSPVSRKPLSPWS
amyloid nucleation score: inactive

HDHFWLYCMCNRTSGYLESF
amyloid nucleation score: inactive

HDRTVSLQYRVNTRVRLASW
amyloid nucleation score: inactive

HDTPFMCV
amyloid nucleation score: inactive

HDVFSNYLITVQTFLWLSGV
amyloid nucleation score: inactive

HELELRFLSGWSREFLELEG
amyloid nucleation score: inactive

HELFRTSHRLRCYFNPHSHI
amyloid nucleation score: inactive

HELLMVSENVRCDAKSHG
amyloid nucleation score: inactive

HEMAYVVPTLVYYVYNTNSR
amyloid nucleation score: -0.076 ± 0.66

HESKTMRKEEIMYTRWYKVL
amyloid nucleation score: inactive

HFETNTVFQVFEICIVSCCY
amyloid nucleation score: 2.34 ± 0.067

HFILVNIAFLVTDPHWLVRV
amyloid nucleation score: inactive

HFLFRVRRGTWK
amyloid nucleation score: 0.396 ± 0.34

HFMFGYGCTRSGQTRSPGFN
amyloid nucleation score: 1.88 ± 0.11

HFQMRAERDESSNRPYSSFG
amyloid nucleation score: inactive

HFRDAVGWGFINGCHPAGSG
amyloid nucleation score: inactive

HFSSYDTDRINAVPKIWTIR
amyloid nucleation score: inactive

HFVLCDHYVR
amyloid nucleation score: inactive

HFVTDDNGGICDVDNV
amyloid nucleation score: inactive

HFYRLAYTSISWVYRSLGAE
amyloid nucleation score: inactive

HGCWKQPDQVVLLWSHRFFR
amyloid nucleation score: inactive

HGCYFYYSCTFYC
amyloid nucleation score: 3.29 ± 0.08

HGERSDKMLDSGSPYMAPSG
amyloid nucleation score: inactive

HGFLFCGFSNYKCVQGNMTF
amyloid nucleation score: inactive

HGFSMTFRLLTFFHGKNYCM
amyloid nucleation score: inactive

HGHSQFL
amyloid nucleation score: inactive

HGMGYRAIFIFNLISQPRLE
amyloid nucleation score: 2.52 ± 0.078

HGMTIMLGVGWYLWDGSTEG
amyloid nucleation score: 0.657 ± 0.16

HGPAMTSRSRNTSVLVLVSP
amyloid nucleation score: inactive

HICIMNMLRFRCIWIPIFYM
amyloid nucleation score: inactive

HIFSKVSYNFEFPRNDCCRY
amyloid nucleation score: inactive

HISCMCLIYIV
amyloid nucleation score: 2.24 ± 0.088

HIVNLFRLYYIAMWGSVCHV
amyloid nucleation score: inactive

HIVSSAMSVT
amyloid nucleation score: inactive

HIWTIRVMFWRELRLLITPI
amyloid nucleation score: inactive

HKCGQDFYR
amyloid nucleation score: inactive

HKCMCVY
amyloid nucleation score: inactive

HKMDWYIGLFRLMHTVAVLM
amyloid nucleation score: inactive

HKMRRAYLKECFVWDYVSCD
amyloid nucleation score: inactive

HKWGCGL
amyloid nucleation score: -0.539 ± 1.5

HKYSEGSLNTFRRLRRSRFS
amyloid nucleation score: inactive

HLFINL
amyloid nucleation score: inactive

HLKCPRERLT
amyloid nucleation score: inactive

HLNYYGAL
amyloid nucleation score: inactive

HLRLRRTFGINLH
amyloid nucleation score: inactive

HLSLRNNNAPDYPSGNSFWE
amyloid nucleation score: inactive

HLSPVNSK
amyloid nucleation score: inactive

HLVKEGDNTMVGGYPFQWMT
amyloid nucleation score: inactive

HLVRCNDRSNLRESGPS
amyloid nucleation score: inactive

HLYDKSMNVGSRSARAELSM
amyloid nucleation score: inactive

HLYLSSVENLKHLFKGVSVH
amyloid nucleation score: -0.381 ± 0.9

HMMTRAASVSLSVQQ
amyloid nucleation score: inactive

HMPVSIFSAFVYMTQNHAIG
amyloid nucleation score: 1.75 ± 0.062

HMQTGDDRLMQAAYMHLEHI
amyloid nucleation score: inactive

HMSSLITVS
amyloid nucleation score: inactive

HMWLFKIQDLMLAHPITGSW
amyloid nucleation score: inactive

HNILFSDLGFYRSYYNADSM
amyloid nucleation score: inactive

HNISAIYDRNRF
amyloid nucleation score: inactive

HNKAETTPLSHCMQSSSKLL
amyloid nucleation score: inactive

HNNIAFSLVVNDESVLWCFN
amyloid nucleation score: 1.97 ± 0.053

HNRRKR
amyloid nucleation score: -0.16 ± 0.4

HNVAYCSGGFCDPYSNFREG
amyloid nucleation score: inactive

HPIANVV
amyloid nucleation score: inactive

HQSISGWLVRGLTAGSGAVC
amyloid nucleation score: -0.496 ± 0.96

HQTLKSQD
amyloid nucleation score: inactive

HQVGYGLHGPG
amyloid nucleation score: -0.539 ± 0.96

HQYWEGCSMLYL
amyloid nucleation score: inactive

HRAPMSHPVCLMIKWLLWVL
amyloid nucleation score: inactive

HRFSVWSEYCILIFRLQHRP
amyloid nucleation score: inactive

HRLVRLSVRMSRRTYS
amyloid nucleation score: inactive

HRYYYFF
amyloid nucleation score: 1.83 ± 0.093

HSFIDERWSLYYERVLVYTG
amyloid nucleation score: inactive

HSRMWVTGLVSCVSGYMQVV
amyloid nucleation score: inactive

HSTTSLWSVVSVQSKTFMLK
amyloid nucleation score: inactive

HSVIIAAMLSEISVSGLISG
amyloid nucleation score: inactive

HTGHHWNRLHETQNSRL
amyloid nucleation score: inactive

HTRWLGYNSHRGYLFLMSKF
amyloid nucleation score: 0.104 ± 0.9
